Assay results as given in article PMC5658516.

Target: OTULIN-diUb adduct (endogenous OTULIN coupled to bio-Ub_(G76Dha)-Ub) (human (endogenous in HEK293 and Jurkat T cells) | not stated) (UniProt Q96BN8)
Assay: pull-down; biotin-PD of the OTULIN-diUb adduct formed in extracts of transfected HEK293 cells or of Jurkat T cells (with or without TNF-α, 20 ng/mL) on streptavidin agarose, three washes with co-IP buffer; western blot of eluate, input and supernatant

| Substance | percent of the protein removed from the extract by the biotin-PD [%] |
| --- | --- |
| endogenous HOIL-1 (from UniProt Q9BYM8 1-510) (natural protein) | 25 |
| endogenous HOIP (from UniProt Q96EP0 1-1072) (natural protein) | 25 |
| endogenous SHARPIN (from UniProt Q9H0F6 1-387) (natural protein) | 25 |
